Target: binding site for alpha-melanocyte stimulating hormone on mouse melanoma cells (mouse)
Assay: binding assay using mouse melanoma cells (Bagutti 1992); ratio against full-length natural alpha-MSH

Substance | relative binding (Kd of full-length natural hormone divided by Kd of the oxime analog)
dioxime formed between the aminooxyacetyl peptide (AOA-Nle-Asp-His-(D)Phe-Arg-Trp-Lys-amide) and glyoxal (O=CH-CH=O) | 3.33
control monooxime of the alpha-MSH analog Nle-Asp-His-(D)Phe-Arg-Trp-Lys-amide (aminooxyacetyl peptide oximated with acetaldehyde) | 0.82

From US20050025740A1
